Source: patent US6541002

Target: Vpr-Gal4AD chimeric protein (UniProt P12520)

| Substance | beta-galactosidase activity, liquid culture of double transformant yeast, relative to wild type UDG-Gal4BD |
| --- | --- |
| UDG-Gal4BD chimeric protein UDG F225G | exhibited only 7% of the ability to interact with Vpr-Gal4AD chimeric protein |
| UDG-Gal4BD chimeric protein UDG W222G | exhibited less than half (43%) of the ability to interact with Vpr-Gal4AD chimeric protein |
